Each block holds one substance with its values, some of them ahead of it.
Legend:
[1] = target: human p75-Tumor-Necrosis-Factor-Receptor on U937 cells (human) (UniProt P20333); assay: 125I-TNF-α (batch 2) competition, U937 cells, exp 3, mutant 2 × 10^-6 mol
[2] = target: human p75-Tumor-Necrosis-Factor-Receptor on U937 cells (human) (UniProt P20333); assay: 125I-TNF-α competition, U937 cells, exp 2, mutant 6 × 10^-8 mol
[3] = target: human p75-Tumor-Necrosis-Factor-Receptor on U937 cells (human) (UniProt P20333); assay: 125I-TNF-α (batch 2) competition, U937 cells, exp 3, mutant 8 × 10^-9 mol
[4] = target: human p75-Tumor-Necrosis-Factor-Receptor on U937 cells (human) (UniProt P20333); assay: 125I-TNF-α (batch 2) competition, U937 cells, exp 3, mutant […] 10^-7 mol
[5] = target: human p75-Tumor-Necrosis-Factor-Receptor on U937 cells (human) (UniProt P20333); assay: 125I-TNF-α competition, U937 cells, exp 1, mutant 4 × 10^-9 mol
[6] = target: human p75-Tumor-Necrosis-Factor-Receptor on U937 cells (human) (UniProt P20333); assay: 125I-TNF-α competition, U937 cells, exp 2, mutant 5 × 10^-7 mol
[7] = target: human p75-Tumor-Necrosis-Factor-Receptor on U937 cells (human) (UniProt P20333); assay: 125I-TNF-α competition, U937 cells, exp 2, mutant 1.2 × 10^-7 mol
[8] = target: human p75-Tumor-Necrosis-Factor-Receptor on U937 cells (human) (UniProt P20333); assay: 125I-TNF-α (batch 2) competition, U937 cells, exp 3, mutant 5 × 10^-7 mol
[9] = target: native human p75-TNF-R purified from HL60 cells (human) (UniProt P20333); assay: from the IC50 values of Table F, competition with 125I-TNFα; reference: the same mutein on p55-TNF-R
[10] = target: human p75-Tumor-Necrosis-Factor-Receptor on U937 cells (human) (UniProt P20333); assay: 125I-TNF-α competition, U937 cells, exp 2, mutant […] 10^-7 mol
[11] = target: human p75-Tumor-Necrosis-Factor-Receptor on U937 cells (human) (UniProt P20333); assay: 125I-TNF-α competition, U937 cells, exp 2, mutant 1.10^-6 as printed
[12] = target: human p75-Tumor-Necrosis-Factor-Receptor on U937 cells (human) (UniProt P20333); assay: 125I-TNF-α competition, U937 cells, exp 2, mutant 3 × 10^-8 mol
[13] = target: native human p75-TNF-R purified from HL60 cells (human) (UniProt P20333); assay: competition with 125I-TNFα for p75-TNF-R, calculated from FIG. 1 (and FIG. 7)
[14] = target: human p75-Tumor-Necrosis-Factor-Receptor on U937 cells (human) (UniProt P20333); assay: competition assay on U937 cells
[15] = target: human p75-Tumor-Necrosis-Factor-Receptor on U937 cells (human) (UniProt P20333); assay: 125I-TNF-α competition, U937 cells, exp 1, mutant 1.5 × 10^-8 mol
[16] = target: human p75-Tumor-Necrosis-Factor-Receptor on U937 cells (human) (UniProt P20333); assay: 125I-TNF-α competition, U937 cells, exp 1, mutant 3 × 10^-8 mol
[17] = target: human p75-Tumor-Necrosis-Factor-Receptor on U937 cells (human) (UniProt P20333); assay: 125I-TNF-α competition, U937 cells, exp 2, mutant 1.5 × 10^-8 mol
[18] = target: human p55-Tumor-Necrosis-Factor-Receptor on Hep-2 cells (human) (UniProt P19438)
[19] = target: human p75-Tumor-Necrosis-Factor-Receptor on U937 cells (human) (UniProt P20333); assay: 125I-TNF-α (batch 2) competition, U937 cells, exp 3, mutant 3 × 10^-8 mol
[20] = target: human p75-Tumor-Necrosis-Factor-Receptor on U937 cells (human) (UniProt P20333); assay: competition analysis, U937 cells against Hep-2 cells
[21] = target: human p75-Tumor-Necrosis-Factor-Receptor on U937 cells (human) (UniProt P20333); assay: 125I-TNF-α competition, U937 cells, exp 1, mutant 2 × 10^-6 mol
[22] = target: human p75-Tumor-Necrosis-Factor-Receptor on U937 cells (human) (UniProt P20333); assay: 125I-TNF-α competition, U937 cells, exp 2, mutant 2 × 10^-6 mol
[23] = target: human p75-Tumor-Necrosis-Factor-Receptor on U937 cells (human) (UniProt P20333); assay: 125I-TNF-α (batch 2) competition, U937 cells, exp 3, mutant 6 × 10^-8 mol
[24] = target: human p75-Tumor-Necrosis-Factor-Receptor on U937 cells (human) (UniProt P20333); assay: 125I-TNF-α competition, U937 cells, exp 1, mutant 6 × 10^-8 mol
[25] = target: human p75-Tumor-Necrosis-Factor-Receptor on U937 cells (human) (UniProt P20333); assay: 125I-TNF-α competition, U937 cells, exp 1, mutant […] 10^-7 mol
[26] = target: human p75-Tumor-Necrosis-Factor-Receptor on U937 cells (human) (UniProt P20333); assay: 125I-TNF-α (batch 2) competition, U937 cells, exp 3, mutant 1.5 × 10^-8 mol
[27] = target: human p75-Tumor-Necrosis-Factor-Receptor on U937 cells (human) (UniProt P20333); assay: competition analysis on U937 cells
[28] = target: human p75-Tumor-Necrosis-Factor-Receptor on U937 cells (human) (UniProt P20333); assay: 125I-TNF-α (batch 2) competition, U937 cells, exp 3, mutant 1 × 10^-6 mol
[29] = target: human p75-Tumor-Necrosis-Factor-Receptor on U937 cells (human) (UniProt P20333); assay: 125I-TNF-α competition, U937 cells, exp 1, mutant 1 × 10^-6 mol
[30] = target: human p75-Tumor-Necrosis-Factor-Receptor on U937 cells (human) (UniProt P20333); assay: 125I-TNF-α competition, U937 cells, exp 1, mutant 5 × 10^-7 mol
[31] = target: human p75-Tumor-Necrosis-Factor-Receptor on U937 cells (human) (UniProt P20333); assay: 125I-TNF-α competition, U937 cells, exp 2, mutant 8 × 10^-9 mol
[32] = target: human p75-Tumor-Necrosis-Factor-Receptor on U937 cells (human) (UniProt P20333); assay: 125I-TNF-α (batch 2) competition, U937 cells, exp 3, mutant 4 × 10^-9 mol
[33] = target: human p75-Tumor-Necrosis-Factor-Receptor on U937 cells (human) (UniProt P20333); assay: 125I-TNF-α competition, U937 cells, exp 1, mutant 1 × 10^-9 mol
[34] = target: human p75-Tumor-Necrosis-Factor-Receptor on U937 cells (human) (UniProt P20333); assay: 125I-TNF-α competition, U937 cells, exp 2, mutant 4 × 10^9 as printed
[35] = target: human p75-Tumor-Necrosis-Factor-Receptor on U937 cells (human) (UniProt P20333); assay: 125I-TNF-α competition, U937 cells, exp 1, mutant 2 × 10^-9 mol
[36] = target: native human p75-TNF-R purified from HL60 cells (human) (UniProt P20333); assay: competition with 125I-TNFα for p75-TNF-R
[37] = target: human p75-Tumor-Necrosis-Factor-Receptor on U937 cells (human) (UniProt P20333); assay: 125I-TNF-α competition, U937 cells, exp 1, mutant 8 × 10^-9 mol
[38] = target: human p75-Tumor-Necrosis-Factor-Receptor on U937 cells (human) (UniProt P20333); assay: 125I-TNF-α (batch 2) competition, U937 cells, exp 3, mutant 1.25 × 10^-7 mol
[39] = target: human p75-Tumor-Necrosis-Factor-Receptor on U937 cells (human) (UniProt P20333); assay: 125I-TNF-α competition, U937 cells, exp 1, mutant 1.25 × 10^-7 mol
[40] = target: recombinant human p75-TNF-R-human IgGγ3 fusion protein (human) (UniProt P20333); assay: calculated from FIG. 7: competition with 125I-TNFα on plates coated with receptor-IgGγ3 fusions; reference: the same mutein on p55-TNF-R-IgGγ3
[41] = target: human p75-Tumor-Necrosis-Factor-Receptor on U937 cells (human) (UniProt P20333); assay: 125I-TNF-α competition, U937 cells, exp 1, mutant 3.2 × 10^-8 mol
[42] = target: human p75-Tumor-Necrosis-Factor-Receptor on U937 cells (human) (UniProt P20333); assay: 125I-TNF-α competition, U937 cells, exp 1, mutant […] 10^-8 mol
[43] = target: human p75-Tumor-Necrosis-Factor-Receptor on U937 cells (human) (UniProt P20333); assay: 125I-TNF-α competition, U937 cells, exp 1, mutant 6.4 × 10^-8 mol
[44] = target: human p75-Tumor-Necrosis-Factor-Receptor on U937 cells (human) (UniProt P20333); assay: 125I-TNF-α competition, U937 cells, exp 2, mutant 1 × 10^-6 mol
[45] = target: human p75-Tumor-Necrosis-Factor-Receptor on U937 cells (human) (UniProt P20333); assay: 125I-TNF-α competition, U937 cells, exp 2, mutant 4 × 10^-9 mol

Chain of UniProt P20333 (P20333 other isoform, or with tags, fused parts or gaps): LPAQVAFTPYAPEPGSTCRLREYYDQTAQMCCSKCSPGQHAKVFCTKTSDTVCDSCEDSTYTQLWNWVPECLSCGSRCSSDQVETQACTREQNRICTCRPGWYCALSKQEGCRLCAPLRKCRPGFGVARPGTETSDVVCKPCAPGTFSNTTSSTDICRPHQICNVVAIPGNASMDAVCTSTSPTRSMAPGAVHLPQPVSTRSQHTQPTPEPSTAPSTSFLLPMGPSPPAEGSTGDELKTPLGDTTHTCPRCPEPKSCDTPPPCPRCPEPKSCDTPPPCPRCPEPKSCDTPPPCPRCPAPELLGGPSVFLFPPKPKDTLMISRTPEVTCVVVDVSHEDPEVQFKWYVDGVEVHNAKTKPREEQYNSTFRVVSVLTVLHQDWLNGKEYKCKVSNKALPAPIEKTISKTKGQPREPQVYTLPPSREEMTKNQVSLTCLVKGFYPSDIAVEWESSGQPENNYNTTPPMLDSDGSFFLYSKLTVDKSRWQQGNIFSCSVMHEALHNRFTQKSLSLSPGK
Chain of UniProt P19438 (P19438 30-455): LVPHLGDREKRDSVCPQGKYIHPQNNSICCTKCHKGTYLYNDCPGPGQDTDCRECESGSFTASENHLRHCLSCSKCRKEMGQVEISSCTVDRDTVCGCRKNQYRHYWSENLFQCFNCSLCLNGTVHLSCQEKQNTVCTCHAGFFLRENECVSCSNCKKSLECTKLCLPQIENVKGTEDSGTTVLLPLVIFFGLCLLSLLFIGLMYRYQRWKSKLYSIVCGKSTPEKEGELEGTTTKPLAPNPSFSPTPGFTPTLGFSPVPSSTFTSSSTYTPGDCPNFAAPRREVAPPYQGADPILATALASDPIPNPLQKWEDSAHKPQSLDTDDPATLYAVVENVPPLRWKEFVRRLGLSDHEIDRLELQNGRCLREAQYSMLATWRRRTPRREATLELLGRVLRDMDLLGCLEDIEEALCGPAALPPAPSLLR

- selectivity factor S (IC50 p75-TNF-R against IC50 p55-TNF-R) [9]: 294
- IC50 [13]: 5 µg/mL
- Decrease in Affinity (with respect to TNFα) [36]: 500
Substance: Trp^32 -TNFα (ligand)
- Mean dpm [1]: 814 dpm
- Mean dpm [2]: 546 dpm
- Mean dpm [3]: 4040 dpm
- Mean dpm [4]: 1980 dpm
- Mean dpm [5]: 1660 dpm
- Mean dpm [6]: 422 dpm
- Mean dpm [7]: 508 dpm
- Mean dpm [8]: 1470 dpm
- Mean dpm [10]: 479 dpm
- Mean dpm [11]: 357 dpm
- Mean dpm [12]: 585 dpm
- increase in KD-value by a factor, against TNF-α [14]: > 100 fold
- Mean dpm [15]: 1490 dpm
- Mean dpm [16]: 1380 dpm
- Mean dpm [17]: 636 dpm
- specific activity (U/mg), cytotoxicity assay on Hep-2 cells [18]: 4.5e+07 U/mg
- specific activity on Hep-2 cells, relative value in percentage to TNF-α [18]: 155%
- Mean dpm [19]: 3280 dpm
- fold reduction of binding affinity against its affinity to p55-TNF-R [20]: 33 fold
- percent of its binding affinity to p55-TNF-R [20]: 3%
- Mean dpm [21]: 628 dpm
- Mean dpm [22]: 294 dpm
- Mean dpm [23]: 3030 dpm
- Mean dpm [24]: 1330 dpm
- Mean dpm [25]: 1030 dpm
- Mean dpm [26]: 3620 dpm
- affinity, relative value in percentage to TNF-α [27]: 0.71%
- Mean dpm [28]: 1190 dpm
- Mean dpm [29]: 777 dpm
- Mean dpm [30]: 953 dpm
- Mean dpm [31]: 629 dpm
- Mean dpm [32]: 4760 dpm
- Mean dpm [33]: 1920 dpm
- Mean dpm [34]: 653 dpm
- Mean dpm [35]: 1700 dpm
- Mean dpm [37]: 1580 dpm
- Mean dpm [38]: 2390 dpm
- Mean dpm [39]: 1170 dpm

- selectivity factor S (IC50 p75-TNF-R against IC50 p55-TNF-R) [40]: 450
Substance: Ser^29 -Trp^32 -TNFα (ligand)

- selectivity factor S (IC50 p75-TNF-R against IC50 p55-TNF-R) [40]: 110
Substance: Tyr^29 -TNFα (ligand)

- selectivity factor S (IC50 p75-TNF-R against IC50 p55-TNF-R) [40]: 80
Substance: Gly^29 -TNFα (ligand)

- selectivity factor S (IC50 p75-TNF-R against IC50 p55-TNF-R) [40]: 90
Substance: Tyr^32 -TNFα (ligand)

- selectivity factor S (IC50 p75-TNF-R against IC50 p55-TNF-R) [9]: 28
- IC50 [13]: 2.5 µg/mL
- Decrease in Affinity (with respect to TNFα) [36]: 250
Substance: Ser^29 -TNFα (ligand)
- Mean dpm [2]: 489 dpm
- Mean dpm [41]: 1420 dpm
- Mean dpm [42]: 1580 dpm
- Mean dpm [5]: 1720 dpm
- Mean dpm [43]: 1320 dpm
- Mean dpm [6]: 319 dpm
- Mean dpm [7]: 413 dpm
- Mean dpm [44]: 263 dpm
- Mean dpm [10]: 380 dpm
- Mean dpm [12]: 572 dpm
- increase in KD-value by a factor, against TNF-α [14]: > 100 fold
- Mean dpm [17]: 641 dpm
- specific activity (U/mg), cytotoxicity assay on Hep-2 cells [18]: 9.3e+06 U/mg
- specific activity on Hep-2 cells, relative value in percentage to TNF-α [18]: 32%
- fold reduction of binding affinity against its affinity to p55-TNF-R [20]: 50 fold
- percent of its binding affinity to p55-TNF-R [20]: 2%
- Mean dpm [21]: 533 dpm
- Mean dpm [22]: 238 dpm
- Mean dpm [25]: 983 dpm
- affinity, relative value in percentage to TNF-α [27]: 0.49%
- Mean dpm [29]: 632 dpm
- Mean dpm [30]: 949 dpm
- Mean dpm [45]: 635 dpm
- Mean dpm [31]: 603 dpm
- Mean dpm [33]: 1870 dpm
- Mean dpm [35]: 1780 dpm
- Mean dpm [37]: 1710 dpm
- Mean dpm [39]: 1200 dpm

Reference: patent publication US5422104
